From US20200024348A1 (Alector, published 2020)
Changes are numbered by the printed parent chain. Names may count otherwise.

T1: human Sortilin (SORT1), full-length untagged, expressed on cells (human, UniProt Q99523 78-831)
T1 construct: U251 cells expressing SORT1 endogenously (down-regulation and PGRN secretion assays); also called human SORT1
T1 sequence: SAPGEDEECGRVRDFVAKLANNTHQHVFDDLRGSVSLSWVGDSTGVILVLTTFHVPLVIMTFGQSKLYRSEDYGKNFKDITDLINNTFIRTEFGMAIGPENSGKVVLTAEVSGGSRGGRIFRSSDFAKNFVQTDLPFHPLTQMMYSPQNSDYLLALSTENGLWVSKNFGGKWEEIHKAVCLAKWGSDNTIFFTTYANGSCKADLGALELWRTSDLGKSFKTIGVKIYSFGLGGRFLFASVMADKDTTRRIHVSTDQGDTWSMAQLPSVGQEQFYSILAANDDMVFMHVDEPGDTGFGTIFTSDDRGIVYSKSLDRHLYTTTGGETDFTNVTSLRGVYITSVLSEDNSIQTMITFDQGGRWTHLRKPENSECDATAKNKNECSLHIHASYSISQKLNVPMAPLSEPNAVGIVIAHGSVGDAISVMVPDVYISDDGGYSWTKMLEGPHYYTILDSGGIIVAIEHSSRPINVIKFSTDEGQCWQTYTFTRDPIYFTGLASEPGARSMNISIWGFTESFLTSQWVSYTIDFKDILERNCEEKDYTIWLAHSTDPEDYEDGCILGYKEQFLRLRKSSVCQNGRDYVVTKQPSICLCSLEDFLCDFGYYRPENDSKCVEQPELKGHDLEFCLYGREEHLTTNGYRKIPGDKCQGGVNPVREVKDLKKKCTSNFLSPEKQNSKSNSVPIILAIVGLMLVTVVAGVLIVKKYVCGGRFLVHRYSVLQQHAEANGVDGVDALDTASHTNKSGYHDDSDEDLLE

T2: histidine-tagged human SORT1 (R&D Systems) (human, UniProt Q99523 78-755)
T2 construct: Bought recombinant protein; also called His-tagged human SORT1; not shown: histidine tag
T2 sequence: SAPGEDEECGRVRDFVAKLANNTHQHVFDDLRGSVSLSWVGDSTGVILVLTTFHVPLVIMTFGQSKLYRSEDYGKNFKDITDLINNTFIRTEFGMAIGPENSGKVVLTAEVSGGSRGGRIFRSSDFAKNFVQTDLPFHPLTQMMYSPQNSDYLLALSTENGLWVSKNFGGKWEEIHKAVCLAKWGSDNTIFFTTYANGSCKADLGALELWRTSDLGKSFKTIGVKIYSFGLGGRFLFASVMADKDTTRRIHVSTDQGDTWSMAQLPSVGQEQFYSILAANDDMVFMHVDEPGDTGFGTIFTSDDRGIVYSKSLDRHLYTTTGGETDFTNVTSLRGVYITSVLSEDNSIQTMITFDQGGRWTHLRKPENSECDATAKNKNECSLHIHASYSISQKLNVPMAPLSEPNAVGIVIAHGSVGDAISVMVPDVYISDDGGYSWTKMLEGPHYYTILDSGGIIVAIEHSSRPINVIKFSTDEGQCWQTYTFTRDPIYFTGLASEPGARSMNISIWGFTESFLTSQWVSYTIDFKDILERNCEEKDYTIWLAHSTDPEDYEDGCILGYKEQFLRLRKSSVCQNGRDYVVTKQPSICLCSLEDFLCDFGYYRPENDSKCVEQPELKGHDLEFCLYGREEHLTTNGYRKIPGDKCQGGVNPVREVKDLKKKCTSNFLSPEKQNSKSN

B1: S-60-3 (antibody, IgG1, V domains shown)
VH: QVQLQESGPGLVKPSETLSLTCAVSGYSISSGYYWGWIRQPPGKGLEWIGTIYHSGSTYYNPSLKSRVTISVDTSKNQFSLKLSSVTAADTAVYYCARQGSIKQGYYGMDVWGQGTTVTVSS
VL: DIVMTQSPLSLPVTPGEPASISCRSSQSLLRSNGYNYLDWYLQKPGQPPQLLIYLGSNRVSGVPDRFSGSGSGTDFTLKISRVEAEDVGVYYCMQQQETPLTFGGGTKVEIK
notes: Tested on the huIgG1 (WT) backbone
B2: S-60-15.1 [N33T] LALAPS (antibody, human IgG1, kappa, L234A L235A, V domains shown)
VH: B1 VH
VL: DIVMTQSPLSLPVTPGEPASISCRSSQSLLRSTGYNYLDWYLQKPGQSPQLLIYLGSNRASGVPDRFSGSGSGTDFTLKISRAEAEDVGVYYCMQQQEAPLTFGGGTKVEIKR
notes: huIgG1 LALAPS
B3: S-60-15.1 [N33T] as huIgG1 (antibody, V domains shown)
VH: B1 VH
VL: B1 VL with N33T, P48S, V60A, V83A, T99A
notes: huIgG1 without the LALAPS mutations
B4: S-60-19 (antibody, IgG1, V domains shown)
VH: B1 VH with R67Q, K82E, K103Q
VL: not shown
notes: as for B1
B5: S-60-12 (antibody, IgG1, V domains shown)
VH: B1 VH with R67Q, K82E, K103Q
VL: B1 VL
notes: as for B1
B6: S-60-24 (antibody, IgG1, V domains shown)
VH: B1 VH
VL: B1 VL with P18S, S28G, P48S, V60A, T99A
notes: as for B1
B7: S-60-15.5 [N33D] (antibody, V domains shown)
VH: B1 VH
VL: B2 VL with T33D
notes: also called completely deamidated version of S-60-15
B8: S-60-10 (antibody, IgG1, V domains shown)
VH: B1 VH with R67Q, K82E, K103Q
VL: not shown
notes: as for B1
B9: S-60-13 (antibody, IgG1, V domains shown)
VH: B1 VH with K65E, K103Q
VL: not shown
notes: as for B1
B10: S-60-18 (antibody, IgG1, V domains shown)
VH: B1 VH
VL: B1 VL with E17G, P48S, V60A, F67L
notes: as for B1
B11: S-60-14 (antibody, IgG1, V domains shown)
VH: B1 VH with K65E, K103Q
VL: not shown
notes: as for B1
B12: S-60-11 (antibody, IgG1, V domains shown)
VH: B1 VH with R67Q, K82E, K103Q
VL: not shown
notes: as for B1

Legend:
[1] = biological target: T1, human Sortilin (SORT1), full-length …; assay: FACS on HEK293T cells expressing human SORT1, huIgG1; average of two experiments
Description: (§1) For the binding assay, stable HEK293T cells expressing human SORT1 were harvested by trypsinization, washed in PBS, counted and plated on 96-well u-bottom plates at 1×10⁵ cells/well. The plates were spun at 1,400 rpm for 3 minutes and primary anti-SORT1 or control antibodies were added in FACS buffer (PBS+2 FBS) and incubated on ice for one hour. Cells were subsequently centrifuged as before and washed thrice with FACS buffer. Cells were then incubated with anti-human APC conjugated secondary antibody (BD Biosciences) in FACS buffer for 30 minutes on ice. Cells were again washed three times with FACS buffer and analyzed on a BD FACS Canto or an Intellicyt Flow Cytometer. Binding was measured as median fluorescent intensity (MFI) in the […] channel of the GFP positive cell population.
(§2) All antibodies were tested on the huIgG1 backbone.

[2] = biological target: T1, human Sortilin (SORT1), full-length …; assay: cell-based or functional assay
[3] = biological target: T1, human Sortilin (SORT1), full-length …; assay: cell-based or functional assay; remark: listed apart in the source
[4] = biological target: T1, human Sortilin (SORT1), full-length …; assay: cell-based or functional assay; remark: listed apart in the source
[5] = biological target: T2, histidine-tagged human SORT1 (R&D …); assay: BLI, complete kinetic analysis with multiple concentrations of SORT1
[6] = biological target: T1, human Sortilin (SORT1), full-length …; assay: FACS on HEK293T cells expressing human SORT1
Description: as §1

[7] = biological target: T1, human Sortilin (SORT1), full-length …; assay: FACS on HEK293T cells expressing human SORT1, huIgG1
Description: as §1, §2

[8] = biological target: T1, human Sortilin (SORT1), full-length …; assay: cell-based or functional assay; remark: listed apart in the source
[9] = biological target: T2, histidine-tagged human SORT1 (R&D …); assay: BLI (Octet RED96), antibody captured on anti-human IgG Fc sensor, 20 nM His-tagged human SORT1, 1:1 fit
Description: The G1m3 or G1m(f) allotype with L234A/L235A/P331S (“LALAPS” motif) mutations was used as a background (Jefferis R and Lefranc M-P, Mabs, 2009 July-August; 1(4): 332-338). […] Bio-layer interferometry (BLI) data was collected at a rate of 5 Hz at 25° C. on a Pall ForteBio Octet RED96 instrument. Data analysis was performed using ForteBio Data Analysis Software, version 9.0. Standard kinetic buffer (PBS, 0.1 BSA, 0.02 Tween-20, pH 7.2) was used for the assay and for preparing reagents. For all assays, sensor tips were equilibrated in buffer prior to analysis.
Twenty nM histidine-tagged human SORT1 (R&D Systems, Minneapolis, Minn.) was then bound to the captured anti-SORT1 surface (200 s association time, 1200 s dissociation time). […] Full, local fitting using a 1:1 interaction model was applied to extract association and dissociation rate constants (kₐ and kd, respectively) for each N33 mutant. Affinity constants (KD) were calculated from the ratio […]. Different amino acid substitutions were made at N33 and tested for binding to SORT1 in an off-rate screen (under non-stress conditions) as shown in Table 9.

Row | Binder | DR at 1.25 nM antibody (IgG): percent SORT1 downregulation, U251 cells [2] | Kd [7] | DR at 0.63 nM antibody (IgG): percent SORT1 downregulation, U251 cells [8] | further results
1 | B1 | 61.5% |  |  | Kd [1]: 0.856 nM; DR EC50 (M): down-regulation of cell surface SORT1, U251 cells, FACS [3]: 2.69e-10 M; DR at 0.6 nM antibody (IgG): percent SORT1 downregulation, U251 cells [3]: 43%
2 | B2 |  |  |  | % DR at 150 nM antibody (IgG), U251 cells [4]: 70.3%; EC50 (pM): downregulation (DR) of cell surface SORT1, U251 cells, FACS [4]: 104 pM; Kd [5]: 0.26 nM
3 | B3 |  |  |  | % DR at 150 nM antibody (IgG), U251 cells [4]: 69.3%; EC50 (pM): downregulation (DR) of cell surface SORT1, U251 cells, FACS [4]: 72.6 pM; Kd [6]: 0.365 nM; Kd [5]: 0.298 nM
4 | B4 | 55.5% | 0.8 nM |  | 
5 | B5 |  | 0.89 nM | 87.4% | 
6 | B6 | 65.2% |  | 81.5% | Kd [1]: 0.755 nM
7 | B7 |  |  |  | % DR at 150 nM antibody (IgG), U251 cells [4]: 3.4%; Kd [9]: 1 nM
8 | B8 |  | 0.65 nM | 85.4% | 
9 | B9 |  | 0.75 nM | 82.3% | 
10 | B10 | 51.3% | 1.63 nM |  | 
11 | B11 |  | 1.05 nM | 80.5% | 
12 | B12 |  | 0.65 nM | 88.8% | 
